# Assay results: patent US20200345898
# T1: lysyl oxidase (LOX), recombinant human, in supernatant of doxycycline-induced HEK293 (Flp-In T-REx 293) cells
# T1 chain: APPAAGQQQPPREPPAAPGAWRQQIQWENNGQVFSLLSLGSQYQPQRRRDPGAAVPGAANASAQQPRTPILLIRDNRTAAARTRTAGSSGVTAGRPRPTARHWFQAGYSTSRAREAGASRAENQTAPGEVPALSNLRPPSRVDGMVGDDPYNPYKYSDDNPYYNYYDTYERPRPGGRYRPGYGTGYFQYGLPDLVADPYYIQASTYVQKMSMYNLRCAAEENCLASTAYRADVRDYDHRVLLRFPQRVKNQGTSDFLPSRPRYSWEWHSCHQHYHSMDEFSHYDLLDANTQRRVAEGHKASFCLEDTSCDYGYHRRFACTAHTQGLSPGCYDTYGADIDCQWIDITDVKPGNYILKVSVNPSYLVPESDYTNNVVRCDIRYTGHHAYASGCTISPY
# B1: bone morphogenetic protein-1 (BMP1), recombinant human, in supernatant of doxycycline-induced HEK293 (Flp-In T-REx 293) cells (protein)
# chain: AATSRPERVWPDGVIPFVIGGNFTGSQRAVFRQAMRHWEKHTCVTFLERTDEDSYIVFTYRPCGCCSYVGRRGGGPQAISIGKNCDKFGIVVHELGHVVGFWHEHTRPDRDRHVSIVRENIQPGQEYNFLKMEPQEVESLGETYDFDSIMHYARNTFSRGIFLDTIVPKYEVNGVKPPIGQRTRLSKGDIAQARKLYKCPACGETLQDSTGNFSSPEYPNGYSAHMHCVWRISVTPGEKIILNFTSLDLYRSRLCWYDYVEVRDGFWRKAPLRGRFCGSKLPEPIVSTDSRLWVEFRSSSNWVGKGFFAVYEAICGGDVKKDYGHIQSPNYPDDYRPSKVCIWRIQVSEGFHVGLTFQSFEIERHDSCAYDYLEVRDGHSESSTLIGRYCGYEKPDDIKSTSSRLWLKFVSDGSINKAGFAVNFFKEVDECSRPNRGGCEQRCLNTLGSYKCSCDPGYELAPDKRRCEAACGGFLTKLNGSITSPGWPKEYPPNKNCIWQLVAPTQYRISLQFDFFETEGNDVCKYDFVEVRSGLTADSKLHGKFCGSEKPEVITSQYNNMRVEFKSDNTVSKKGFKAHFFSEKRPALQPPRGRPHQLKFRVQKRNRTPQ
# Target: T1, lysyl oxidase (LOX), recombinant human, …
protein,measurement,value
B1,"LOX enzymatic activity, fluorometric assay","the induction of the expression of LOX promoted a strong increase in LOX enzymatic activity, that was further augmented upon incubation with BMP1 supernatants in a time-dependent manner"
same,"LOX immunoreactivity by western blotting in supernatants of fibroblast cultures, one day",the combination of recombinant LOX and BMP1 resulted in complete proteolysis of the pro-LOX
